± gives the uncertainty stated by the source.
B1: DnaJ homolog subfamily C member 2, residues 451 to 503; numbered along this chain, Q99543 (parent)
chain: SKNWSEDDLQLLIKAVNLFPAGTNSRWEVIANYMNIHSSSGVKRTAKDVIGKA

Variants of: B1
Test: abundance fitness (aPCA) (normalised: wild type 0, dead -1); higher = more abundant; growth selection in yeast, the domain comes from the species named
Conditions: Homo sapiens
For SKNRSEDDLQLLIKAVNLFPAGTNSRWEVIANYMNIHSSSGVKRTAKDVIGKA, the abundance fitness was -0.777 ± 0.057. SKNWSEDDLQLLIKAHNLFPAGTNSRWEVIANYMNIHSSSGVKRTAKDVIGKA gave an abundance fitness of -0.25 ± 0.1. Variant SKNWSEDDLQLLIKAVNLFPAGTNSRWEGIANYMNIHSSSGVKRTAKDVIGKA has an abundance fitness of -0.026 ± 0.052. Work on SKNWSEDDLQLLIKAVNLFPAGTNSRWELIANYMNIHSSSGVKRTAKDVIGKA yielded an abundance fitness of -0.051 ± 0.059. SKNWSEDDLQLLIKAVNLFPAGTNSRWERIANYMNIHSSSGVKRTAKDVIGKA gave an abundance fitness of 0.043 ± 0.053. In the case of SKNWSEDDLQLLIKAVNLFPAGTNSRWEVIANYMNIHSSSGVKRTAKDVIGRA, the abundance fitness is reported as -0.119 ± 0.076. SKNWSEDDLQLLIKAVNLFPAGTNSRWEVIANYMNIHSSSGVKRTAKDVIGTA gave an abundance fitness of -0.197 ± 0.09. In the case of SKNWSEDDLQLLIKAVNLFPAGTNSRWEVIANYMNIHSSSGVKRTAKDVIGMA, the abundance fitness is reported as -0.247 ± 0.15. Work on SKNWSEDDLQLLIKAVNLFPAGTNSRWEVIANYMNIHSSSGVKRTAKDVIGPA yielded an abundance fitness of -0.077 ± 0.094. Variant SKNWSEDDLQLLIKAVNLFPAGTNSRWEVIANYMNIHSSSGVKRTAKDVIGCA has an abundance fitness of -0.033 ± 0.097. For SKNWSEDDLQLLIKAVNLFPAGTNSRWEVIANYMNIHSSSGVKRTAKDVIPKA, the abundance fitness was -0.194 ± 0.088. SKNWSEDDLQLLIKAVNLFPAGTNSRWEVIANYMNIHSSSGVKRTAKDVILKA showed an abundance fitness of -0.159 ± 0.071. Work on SKNWSEDDLQLLIKAVDLFPAGTNSRWEVIANYMNIHSSSGVKRTAKDVIGKA yielded an abundance fitness of 0.12 ± 0.094. Work on SKNWSEDDLQLLIKAVKLFPAGTNSRWEVIANYMNIHSSSGVKRTAKDVIGKA yielded an abundance fitness of -0.043 ± 0.095. In the case of SKNWSEDDLQLLIKAVLLFPAGTNSRWEVIANYMNIHSSSGVKRTAKDVIGKA, the abundance fitness is reported as -0.216 ± 0.062. In the case of SKNWSEDDLQLLIKAVRLFPAGTNSRWEVIANYMNIHSSSGVKRTAKDVIGKA, the abundance fitness is reported as -0.036 ± 0.057. Variant SKNWSEDDLQLLIKAVNLFPAGTNSHWEVIANYMNIHSSSGVKRTAKDVIGKA has an abundance fitness of -0.831 ± 0.46. With SKEWSEDDLQLLIKAVNLFPAGTNSRWEVIANYMNIHSSSGVKRTAKDVIGKA the abundance fitness was -0.554 ± 0.093. Variant SKNWSEDDLQLLIKAVNLFPAGTNSRWEVIALYMNIHSSSGVKRTAKDVIGKA has an abundance fitness of -0.315 ± 0.058. With SKNWSEDDLQLLIKAVNLVPAGTNSRWEVIANYMNIHSSSGVKRTAKDVIGKA the abundance fitness was -0.102 ± 0.067. SKNWSEDDLQLLIKAVNLSPAGTNSRWEVIANYMNIHSSSGVKRTAKDVIGKA gave an abundance fitness of -0.622 ± 0.075. Work on SKNWSEDDLQLLIKAVNLWPAGTNSRWEVIANYMNIHSSSGVKRTAKDVIGKA yielded an abundance fitness of -0.215 ± 0.077. For SKNWSEDDLQLLIKAVNLAPAGTNSRWEVIANYMNIHSSSGVKRTAKDVIGKA, the abundance fitness was -0.536 ± 0.094. In the case of SKNWSEDDLQLLIKAVNLNPAGTNSRWEVIANYMNIHSSSGVKRTAKDVIGKA, the abundance fitness is reported as -0.803 ± 0.16. With SKNWSEDDLQLLIKAVNLLPAGTNSRWEVIANYMNIHSSSGVKRTAKDVIGKA the abundance fitness was -0.602 ± 0.07. With SKNWSEDDLQVLIKAVNLFPAGTNSRWEVIANYMNIHSSSGVKRTAKDVIGKA the abundance fitness was -0.37 ± 0.056. Variant SKNWSEDDLQLLIKAVNLFPAGTNSRWEVIANYCNIHSSSGVKRTAKDVIGKA has an abundance fitness of -0.136 ± 0.077. Variant SKNWSEDDLQLLIKAVNLFPAGTNSRWEVIANYLNIHSSSGVKRTAKDVIGKA has an abundance fitness of -0.056 ± 0.064. Variant SKNWSEDDLQLLIKAVNLFPAGTNSRWEVIANYENIHSSSGVKRTAKDVIGKA has an abundance fitness of -0.816 ± 0.086. For SKNWSEDDLQLLIKAVNLFPAGTNSRWEVIANYRNIHSSSGVKRTAKDVIGKA, the abundance fitness was -0.963 ± 0.065. Variant SKNWSEDDLQLLIKAVNLFPAGTNSRAEVIANYMNIHSSSGVKRTAKDVIGKA has an abundance fitness of -0.114 ± 0.072. For SKNWSEDKLQLLIKAVNLFPAGTNSRWEVIANYMNIHSSSGVKRTAKDVIGKA, the abundance fitness was -0.422 ± 0.087. SKNWSEDDLQLLIKAVNLFIAGTNSRWEVIANYMNIHSSSGVKRTAKDVIGKA gave an abundance fitness of -0.961 ± 0.13. Work on SKNWSEDDLQLLIKAVNLFQAGTNSRWEVIANYMNIHSSSGVKRTAKDVIGKA yielded an abundance fitness of -0.328 ± 0.07. SKNWSEDDLQLLIKAVNLFPAGTSSRWEVIANYMNIHSSSGVKRTAKDVIGKA gave an abundance fitness of -0.043 ± 0.066. SKNWSEDDLQLLIKAVNLFPAGTASRWEVIANYMNIHSSSGVKRTAKDVIGKA showed an abundance fitness of 0.14 ± 0.083. SKNWSEDDLQLTIKAVNLFPAGTNSRWEVIANYMNIHSSSGVKRTAKDVIGKA showed an abundance fitness of -0.907 ± 0.087. SKNWSEDDLQLLIKAVNLFPAGTNSRWEVIANYMNIHSSSGVKRTAKDVIGKT gave an abundance fitness of -0.254 ± 0.19. For SKNWSEDDLQLLIKAVNLFPAGTNSRWEVIANYMNIHSSSGVKRTAKDVIGKC, the abundance fitness was -0.188 ± 0.25. With SNNWSEDDLQLLIKAVNLFPAGTNSRWEVIANYMNIHSSSGVKRTAKDVIGKA the abundance fitness was 0.076 ± 0.18. Variant SMNWSEDDLQLLIKAVNLFPAGTNSRWEVIANYMNIHSSSGVKRTAKDVIGKA has an abundance fitness of -0.076 ± 0.095. For SCNWSEDDLQLLIKAVNLFPAGTNSRWEVIANYMNIHSSSGVKRTAKDVIGKA, the abundance fitness was -0.274 ± 0.1. Work on SKNWSEDDLQLLIKAVNLFPAGTNSRWEVIANYMSIHSSSGVKRTAKDVIGKA yielded an abundance fitness of -0.186 ± 0.064. SKNWSEDDLQLLIKAVNLFPAGTNSRWEVIANYMNIHCSSGVKRTAKDVIGKA showed an abundance fitness of -0.169 ± 0.066. SKNWSEDDLQLLIKAVNLFPAGTNSRWEVIANYMNIHWSSGVKRTAKDVIGKA showed an abundance fitness of -1 ± 0.088. SKNWSEDDLQLLIKAVNLFPAGTNSRWEVIANYMNIHSSSGVKRTAYDVIGKA showed an abundance fitness of -0.212 ± 0.11. For SKNWSEDDLQLLIKAVNLFPAGTNSRWEVIANYMNIHSSSGVKRTAWDVIGKA, the abundance fitness was -0.266 ± 0.089. With SKNWSEDDLQLLIKAVNLFPAGTNSRWEVIANYMNPHSSSGVKRTAKDVIGKA the abundance fitness was -0.994 ± 0.12. In the case of SKNWSEDDLQLLIKAVNLFPAGTNSRWEVIANYMNIHSSSGVKRTAKDFIGKA, the abundance fitness is reported as -0.721 ± 0.18. In the case of SKNWSEDDLQLLIKAVNLFPAGTNSRWEVIANYMNIHSSSGVKRTAKDDIGKA, the abundance fitness is reported as -0.877 ± 0.15.

From the Human Domainome abundance scans (Beltran et al. 2025)
